# Experimental data: patent publication US20240317834A1, “COMPOSITIONS AND METHODS FOR NEUROLOGICAL DISEASES” (CODA BIOTHERAPEUTICS, INC., priority 2020, published 2024)
# Changes are numbered by the printed parent chain. Numbers in names are those of the source.
# B1: CODA377: engineered chimeric LGIC receptor, S172D in SEQ ID NO: 33 (protein)
# chain: MRCSPGGVWLALAASLLHVSLQGEFQRKLYKELVKNYNPLERPVANDSQPLTVYFSLSLLQIMDVDEKNQVLTTNIWLQMSWTDHYLQWNVSEYPGVKTVRFPDGQIWKPDILLYNSADERFDATFHTNVLVNSSGHCQYLPPGIFKSSCPMDLKNFPMDVQTCKLKFGSWDYGGWSLDLQMQEADISGYIPNGEWDLVGIPGKRSERFYECCKEPYPDVTFTVTMRRRMGYYLIQMYIPSLLIVILSWISFWINMDAAPARVGLGITTVLTMTTQSSGSRASLPKVSYVKAIDIWMAVCLLFVFSALLEYAAVNFVSRQHKELLRFRRKRRHHKSPMLNLFQEDEAGEGRFNFSAYGMGPACLQAKDGISVKGANNSNTTNPPPAPSKSPEEMRKLFIQRAKKIDKISRIGFPMAFLIFNMFYWIIYKIVRREDVHNQ
# modifications: synthetic sequence of chimeric LGIC
# B2: CODA405: engineered chimeric LGIC receptor, Y210V in SEQ ID NO: 33 (protein)
# chain: B1 chain with D172S, Y210V
# modifications: synthetic sequence of chimeric LGIC
# Test system: Lenti-X 293T cells
# Assay: YFP fluorescence quenching anion reporter plate reader assay of engineered receptors stimulated with acetylcholine or a non-native ligand
# Assay type: cell-based
# Conditions: for percent quench of YFP fluorescence, 10 uM ach: acetylcholine 10 uM; for percent quench of YFP fluorescence, 100 uM ach: acetylcholine 100 uM; for percent quench of YFP fluorescence, 1 mM ach: acetylcholine 1 mM; for percent quench of YFP fluorescence, 3 mM ach: acetylcholine 3 mM
# In short: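 Lenti-X 293T cells carrying a YFP anion reporter were transiently transfected with channel DNA and assayed the next day in HEPES-buffered ECS at pH 7.2. Ligand (acetylcholine or non-native ligand) was added in NaI-substituted ECS. Percent quench was the mean of the last 10 s relative to the 15 s pre-addition baseline.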
molecule,measurement,setting,value
B1,YFP fluorescence quenching using CNL001,"1 nM CNL001, first column",67.544%
same,YFP fluorescence quenching using CNL001,"1 nM CNL001, second column",74.209%
same,YFP fluorescence quenching using TC-5619/Bradanicline,1 nM brd,0.77%
same,YFP fluorescence quenching using TC-5619/Bradanicline,3 nM brd,−4.59%
same,YFP fluorescence quenching using Varenicline,"3 nM var, first column",−3.433
same,YFP fluorescence quenching using Varenicline,"3 nM var, second column",−5.737
same,YFP fluorescence quenching using CNL001,"10 nM CNL001, first column",74.346%
same,YFP fluorescence quenching using CNL001,"10 nM CNL001, second column",75.816%
same,YFP fluorescence quenching using TC-5619/Bradanicline,10 nM brd,0.06%
same,YFP fluorescence quenching using TC-5619/Bradanicline,30 nM brd,−10.48%
same,YFP fluorescence quenching using Facinicline,30 nM fac,4.93
same,YFP fluorescence quenching using Varenicline,"30 nM var, first column",−5.319
same,YFP fluorescence quenching using Varenicline,"30 nM var, second column",−6.175
same,YFP fluorescence quenching using CNL001,"50 nM CNL001, first column",77.068%
same,YFP fluorescence quenching using CNL001,"50 nM CNL001, second column",76.99%
same,YFP fluorescence quenching using ABT-126,50 nM abt,−1.53%
same,YFP fluorescence quenching using CNL001,"100 nM CNL001, first column",79.352%
same,YFP fluorescence quenching using CNL001,"100 nM CNL001, second column",77.865%
same,YFP fluorescence quenching using CNL002,100 nM CNL002,59.35%
same,YFP fluorescence quenching using ABT-126,100 nM abt,18.18%
same,YFP fluorescence quenching using AZD-0328,100 nM azd0328,65.04%
same,YFP fluorescence quenching using TC-5619/Bradanicline,100 nM brd,0.25%
same,YFP fluorescence quenching using ABT-126,300 nM abt,59.15%
same,YFP fluorescence quenching using AZD-0328,300 nM azd0328,81.73%
same,YFP fluorescence quenching using TC-5619/Bradanicline,300 nM brd,−10.61%
same,YFP fluorescence quenching using Facinicline,300 nM fac,84.13
same,YFP fluorescence quenching using Varenicline,"300 nM var, first column",−4.135
same,YFP fluorescence quenching using Varenicline,"300 nM var, second column",−8.614
same,YFP fluorescence quenching using Varenicline,"500 nM var, first column",−6.062
same,YFP fluorescence quenching using Varenicline,"500 nM var, second column",−6.125
same,YFP fluorescence quenching using CNL001,"1 uM CNL001, first column",80.272%
same,YFP fluorescence quenching using CNL001,"1 uM CNL001, second column",79.432%
same,YFP fluorescence quenching using CNL002,1 uM CNL002,79.26%
same,YFP fluorescence quenching using ABT-126,1 uM abt,72.28%
same,YFP fluorescence quenching using TC-5619/Bradanicline,1 uM brd,3.82%
same,YFP fluorescence quenching using TC-6987,1 uM tc6987,−9.74
same,YFP fluorescence quenching using Varenicline,"1 uM var, first column",−14.134
same,YFP fluorescence quenching using Varenicline,"1 uM var, second column",−15.373
same,YFP fluorescence quenching using TC-6987,3 uM tc6987,−14.04
same,YFP fluorescence quenching using TC-6987,5 uM tc6987,−0.95
same,YFP fluorescence quenching using Facinicline,10 uM fac,66.96
same,YFP fluorescence quenching using TC-6987,10 uM tc6987,−7.41
same,YFP fluorescence quenching using CNL002,30 uM CNL002,79.96%
same,YFP fluorescence quenching using AZD-0328,30 uM azd0328,82.3%
same,YFP fluorescence quenching using Facinicline,30 uM fac,85.29
same,YFP fluorescence quenching using TC-6987,30 uM tc6987,−16.12
same,YFP fluorescence quenching using TC-6987,50 uM tc6987,−12.79
same,YFP fluorescence quenching using TC-6987,100 uM tc6987,−11.77
same,YFP fluorescence quenching using TC-6987,300 uM tc6987,−19.68
same,YFP fluorescence quenching using TC-6987,500 uM tc6987,−17.02
same,"percent quench of YFP fluorescence, 30 nM TC-6683",TC-6683 30 nM,−20.23%
same,"percent quench of YFP fluorescence, 300 nM TC-6683",TC-6683 300 nM,−13.94%
same,"percent quench of YFP fluorescence, 3 uM TC-6683",TC-6683 3 uM,−14.17%
same,"percent quench of YFP fluorescence, 30 uM TC-6683",TC-6683 30 uM,1.86%
same,"percent quench of YFP fluorescence, 100 uM TC-6683",TC-6683 100 uM,43.61%
same,"percent quench of YFP fluorescence, 10 uM ach",,−3.19%
same,"percent quench of YFP fluorescence, 100 uM ach",,0.07%
same,"percent quench of YFP fluorescence, 1 mM ach",,71.7%
same,"percent quench of YFP fluorescence, 3 mM ach",,76.95%
B2,YFP fluorescence quenching using CNL001,"1 nM CNL001, first column",−16.246%
same,YFP fluorescence quenching using CNL001,"1 nM CNL001, second column",−4.217%
same,YFP fluorescence quenching using TC-5619/Bradanicline,3 nM brd,9.92%
same,YFP fluorescence quenching using Varenicline,"3 nM var, first column",7.317
same,YFP fluorescence quenching using Varenicline,"3 nM var, second column",7.643
same,YFP fluorescence quenching using CNL001,"10 nM CNL001, first column",−6.142%
same,YFP fluorescence quenching using CNL001,"10 nM CNL001, second column",−10.003%
same,YFP fluorescence quenching using TC-5619/Bradanicline,30 nM brd,4.37%
same,YFP fluorescence quenching using Facinicline,30 nM fac,−26.25
same,YFP fluorescence quenching using Varenicline,"30 nM var, first column",9.457
same,YFP fluorescence quenching using Varenicline,"30 nM var, second column",9.134
same,YFP fluorescence quenching using CNL001,"50 nM CNL001, first column",−11.054%
same,YFP fluorescence quenching using CNL001,"50 nM CNL001, second column",−10.06%
same,YFP fluorescence quenching using ABT-126,50 nM abt,−2.9%
same,YFP fluorescence quenching using CNL001,"100 nM CNL001, first column",−3.832%
same,YFP fluorescence quenching using CNL001,"100 nM CNL001, second column",−3.784%
same,YFP fluorescence quenching using CNL002,100 nM CNL002,−14.3%
same,YFP fluorescence quenching using ABT-126,100 nM abt,−2.06%
same,YFP fluorescence quenching using AZD-0328,100 nM azd0328,−8.13%
same,YFP fluorescence quenching using ABT-126,300 nM abt,−0.19%
same,YFP fluorescence quenching using AZD-0328,300 nM azd0328,−3.35%
same,YFP fluorescence quenching using TC-5619/Bradanicline,300 nM brd,59%
same,YFP fluorescence quenching using Facinicline,300 nM fac,−23.52
same,YFP fluorescence quenching using Varenicline,"300 nM var, first column",15.503
same,YFP fluorescence quenching using Varenicline,"300 nM var, second column",11.954
same,YFP fluorescence quenching using Varenicline,"500 nM var, first column",13.427
same,YFP fluorescence quenching using Varenicline,"500 nM var, second column",10.784
same,YFP fluorescence quenching using CNL001,"1 uM CNL001, first column",1.129%
same,YFP fluorescence quenching using CNL001,"1 uM CNL001, second column",7.1%
same,YFP fluorescence quenching using CNL002,1 uM CNL002,−7.56%
same,YFP fluorescence quenching using ABT-126,1 uM abt,−3.64%
same,YFP fluorescence quenching using TC-6987,1 uM tc6987,−22.63
same,YFP fluorescence quenching using Varenicline,"1 uM var, first column",9.032
same,YFP fluorescence quenching using Varenicline,"1 uM var, second column",11.591
same,YFP fluorescence quenching using TC-6987,10 uM tc6987,−23.03
same,YFP fluorescence quenching using CNL002,30 uM CNL002,−2.02%
same,YFP fluorescence quenching using AZD-0328,30 uM azd0328,−2.86%
same,YFP fluorescence quenching using Facinicline,30 uM fac,0.83
same,YFP fluorescence quenching using TC-6987,500 uM tc6987,−40.88
same,"percent quench of YFP fluorescence, 10 uM ach",,−6.31%
same,"percent quench of YFP fluorescence, 100 uM ach",,−14.48%
same,"percent quench of YFP fluorescence, 1 mM ach",,−2.82%
same,"percent quench of YFP fluorescence, 3 mM ach",,1.06%
